Measured values taken from patent US20160303217A1 (published 2016).

B1: porcine transferrin (ligand)
chain: VAQKTVRWCTISNQEANKCSSFRENMSKAVKNGPLVSCVKKSSYLDCIKAIRDKEADAVTLDAGLVFEAGLAPYNLKPVVAEFYGQKDNPQTHYYAVAVVKKGSNFQWNQLQGKRSCHTGLGRSAGWIIPMGLLYDQLPEPRKPIEKAVASFFSSSCVPCADPVNFPKLCQQCAGKGAEKCACSNHEPYFGYAGAFNCLKEDAGDVAFVKHSTVLENLPDKADRDQYELLCRDNTRRPVDDYENCYLAQVPSHAVVARSVDGQEDSIWELLNQAQEHFGRDKSPDFQLFSSSHGKDLLFKDSANGFLKIPSKMDSSLYLGYQYVTALRNLREEISPDSSKNECKKVRWCAIGHEETQKCDAWSINSGGKIECVSAENTEDCIAKIVKGEADAMSLDGGYIYIAGKCGLVPVLAENYKTEGENCVNTPEKGYLAVAVVKKSSGPDLNWNNLKGKKSCHTAVDRTAGWNIPMGLLYNKINSCKFDQFFGEGCAPGSQRNSSLCALCIGSERAPGRECLANNHERYYGYTGAFRCLVEKGDVAFVKDQVVQQNTDGKNKDDWAKDLKQMDFELLCQNGAREPVDNAENCHLARAPNHAVVARDDKVTCVAEELLKQQAQFGRHVTDCSSSFCMFKSNTKDLLFRDDTQCLARVGKTTYESYLGADYITAVANLRKCSTSKLLEACTFHSAKNPRVETTT
B2: H. parasuis TbpB 27-577 (amino acid 27-577) derived from the Nagasaki strain Hp5, purified recombinant truncated protein (protein)
chain: FDLEDVQPNKTTGVSKEEYQDVETDKKVKEQLGELMEPALGYVVKVPVSQSGARRTEISNPEAITDEDLKKIPNHETIKSVAEQNYGWVVDKTADKTMKYVRSGYAIDVDHYGTRDKGYVFYKGINPSKELPQGLVLTYQGEWDFTSDANLDAKRPNSNPEFNGYGPGQRIATTSANAKGRTYTSEFEVDFSAKKLKGKLNSKTANTESLERYSIEAEPKGNRFRGKAIAKDTSDAILGKSSDYLEGGFYGPKAEELAGKFITNDKSLFAVFSAKHNGSNVDTVRIIDASKIDLTHFNSSELTNFGDASVLIIDGKKMDLAGTDFKNSKTIEINGKTMVAVACCSNLEYMKFGQLWQKEGETAKDNSLFLQGERTTTDKMPKGGNYKYIGTWDAQVSKENNWVATADDDRKAGYRTEFDVDFGNKNLSGKLFDKNGVNPVFTVDAKINGNGFTGKAKTSDAGFALDSDSSRYDNVKFSDVAVNGGFYGPTAAELGGQFFHKSDNGSVGAIFGAKRQVKK

Experiments:
[1] = target: T1, A. pleuropneumoniae TbpB 20-528 (amino acid 20-528) derived from strain H49, purified recombinant truncated …; assay: ITC
[2] = target: T1, A. pleuropneumoniae TbpB 20-528 (amino …); assay: SPR
[3] = target: A. pleuropneumoniae TbpB 26-528 (amino acid 26-528) derived from strain H87, purified recombinant truncated …; assay: SPR
[4] = target: B1; assay: BLI

Binder | Kd [1] | Kd [2] | Kd [3] | Kd [4]
B1 | 55 nM | 44 nM | 60 nM | 
B2 |  |  |  | 21 nM
